Assay results from article PMC5171582, “Translational regulation of APOBEC3G mRNA by Vif requires its 5′UTR and contributes to restoring HIV-1 infectivity” (Scientific Reports, 2016).

Target: T1, HA-tagged APOBEC3G (human, UniProt Q9HC16 1-384)
T1 construct: APOBEC3G (A3G), human cytidine deaminase, expressed from pA3G-HA; The plasmid pA3G-HA is not described in the Plasmids section; also called A3G-HA; A3G; source: HEK 293T, transfected (pA3G-HA), in lysate
Experiment: co-IP; HEK 293T cells co-transfected with pA3G-HA and wild-type or mutant Vif plasmids; lysed in RIPA 1X 24 h post-transfection; anti-HA antibody 2 h at 4 °C, protein A Dynabeads 1.5 h at 4 °C, 5 washes with cold RIPA; western blot with anti-Vif
Details: partners not purified

T1 sequence (Q9HC16 whole entry): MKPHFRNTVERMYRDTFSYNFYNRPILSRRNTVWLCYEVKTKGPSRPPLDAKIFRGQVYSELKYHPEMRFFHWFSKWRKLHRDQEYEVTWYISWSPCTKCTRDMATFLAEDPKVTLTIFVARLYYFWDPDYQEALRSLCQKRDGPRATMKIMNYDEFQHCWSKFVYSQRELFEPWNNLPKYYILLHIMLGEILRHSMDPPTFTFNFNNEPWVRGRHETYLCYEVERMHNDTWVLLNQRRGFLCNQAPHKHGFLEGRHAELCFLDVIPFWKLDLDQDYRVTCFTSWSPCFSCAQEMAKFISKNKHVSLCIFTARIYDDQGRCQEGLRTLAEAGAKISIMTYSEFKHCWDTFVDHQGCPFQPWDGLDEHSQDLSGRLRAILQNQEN

B1: Vif H42/43N (natural protein)
chain: not shown
notes: Vif of HIV-1 NL4.3 (codon-optimized pcDNAhVif) with the mutations H42N and H43N; also called H42/H43-N; Vif mutant H42/43N; source: HEK 293T, transfected (pcDNAhVif mutant), in lysate
B1 was tested, and the “fold decrease of binding against wild-type Vif” value was ~2 fold.
